Assay results reported in the supplement of paper PMC9170038.

Test system: MS2 coat protein
Assay: apparent KD of MS2 coat protein; higher = weaker reporter binding
Conditions: Eterna round: R107; input ligand: theophylline 2 mM
Outline: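 Apparent KD per design is the median of normalised cluster binding-curve fits. Designed RNA switches transcribed on-chip from Illumina sequencing clusters were titrated with SNAP-549-labelled MS2 coat protein in twofold steps from 0.7 or 1.5 nM to 3 µM, with 0.8–1.5 h down to 10–20 min per step. Buffer: 100 mM Tris-HCl pH 7.5, 80 mM KCl, 4 mM MgCl2, without or with constant ligand.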

Row | Sequence | apparent KD of MS2 coat protein [nM]
1 | CACAUGAGGAUCACCCAUGUCUGAACUGAAGGAGCGCUAAAUAAGGCAGGUAGGUCGCGGAAUCUUGUGUGCAUAUGCACACGGG [9.T] | 31.2
2 | UGUACAGACAUCGAAUUCCUAUGUGCUGAAGGAGCGUCGUUGACGACAGGUAGGUCGCAGUUAACAUGAGGAUCACCCAUGUACA [Arg A Ex t5] | 119
3 | CGUAUUGGAAACAGUACGAGUGAUCCGGUCCGAGGACCGGUACGGCCGCCACUCGAAAUUAAUAAACAUGAGGAUCACCCAUGUA [Ex Tryptophan A 10] | 20.2
4 | UCCACAUGAGGAUCACCCAUGUGCCAUGAUACCAGACAUGAAAAUGUCCCUUGGCAGCAUGAGUGAGGCAUCCGAAAGGAUGCCU [Chrlice] | 38.3
5 | AAGGGAGAGUCAGAUACCAGAGUAAGAUGGCAUGGUAAUUACAUGAGGAUCACCCAUGUAUUCCCUUGGCAGCUGACCCUACGUU [Exclusion Theophylline B GF 19] | 16.6
6 | GGGCCUAUCUGAAGGAGCGACAUGAGGAUCACCCAUGUCUCCCGUUAUGGGAGUUCUUUAGGUCAGGUAGGUCGCAGGUAGGGCC [#1 Exclusion - Arginine B Attempt #5 (Inspired by Omei)] | 15.2
7 | GGCCAUGGAAACAUGGCGGCGGCGUAUGCGCGAGGACCGGUACGGCCGCCACUCGGGCGACAUGAGGAUCACCCAUGUUCCUCAU [ETA NP+V+V2 #25] | 275
8 | CACAUGAGGAUCACCCAUGUCUGAACUGAAGGAGCGCUAAACAAGGCAGGUAGGUCGCGGAAUCCCGUGUGCAUAUGCACACGGG [9.Z] | 20.4

Same assay, conditions: Eterna round: R107; input ligand: tryptophan 2.4 mM

Row | Sequence | apparent KD of MS2 coat protein [nM]
9 | UAACAUGAGGAUCACCCAUGUUUGAAGGAACGAGGACCGGUACGGCCGCCACUCGACGAGUGGAUGAGAAGUGGGAUUGUGUGCU [Same State Trp A GF8] | 15.2
10 | GGGUACAUCGCGGCCGCCACUUGUGUAAAUACAUGAGGAUCACCCAUGUCGAUGGAGACAUCGGAGAGGACCGGGUGAUGUACCG | 40.8
11 | GCGAUGGAGCGAAGGAGCGUGCUAGUACAUGAGGAUCACCCAUGUGAGUCGCAGCGCUAAGCACAGGUAGGUCGCGCUCCAUCGC [EAB NP+V+V2 #12] | 40.5
12 | GAUCCUCAUACGGAUACCAGCGAAUAACAUGAGGAUCACCCAUGUAAUAAAGAAAAUAAAUGCCCUUGGCAGCCGAAUAGAUAGU [Same State Theophylline B GF 1] | 91.1
13 | CACGGCCAUGAGGAUCACCCAUGGAAUAAUCGAGGACCGGUACGGCCGCCACUCGUGGACCGUGACCUGUACGAAAAGUGCAGGA | 10
14 | AAAUAAAUAACUGAUACCAGUCGGACAACAUGAGGAUCACCCAUGUUCACCCAUGUUGAGGACCCUUGGCAGCAGAAAUAUAAAA [test (nupak+vienna] | 243
15 | AGCGACAUGCGUGAUACCAGCUACAUGAGGAUCACCCAUGUGAGUAGGAAACUACUGUGUAGCCCUUGGCAGCACAGUGCAUGUC [Exclusion - Theophylline B (Freestyle 25)] | 10.3
16 | CCUAUGCAGUCGGCCGCCACUGAACAUGAGGAUCACCCAUGUAAUUAAAAUUAAGAUCCUGAAAUCAGGACCGGGACUGUAUAGG [Ex Tryptophan B 4] | 196
17 | AUCGUACCUGAUGAUACCAGCAAUUGCUCGUGACAUGAGGAUCACCCAUGUGACCAGUGAUGCCCUUGGCAGCAUGGUCGGUGCA [Same State - Theophylline B (Freestyle 22)] | 69.5
18 | GGGACACCGGGAAGGAGCGCAUCCAAACCACACAUGAGGAUCACCCAUGUAUAAAUAUGCAUGCAGGUAGGUCGCCCGAUGUCUC [Anrearradi] | 110
19 | UGUAACAUGAGGAUCACCCAUGUAAGUGAUACCAGAUAAGUAGUAGUCCCUUGGCAGCAUAUUGGGCAAGUGUAUAGUCUAUACG [Same State - Theophylline A (Freestyle 6)] | 48.3
20 | AAAUAAAUACAUGAGGAUCACCCAUGUGAAGGAGCGGCCGUUAGGCCAGGUAGGUCGCGCAUGAAUAACUCCGUGCAAAAGCACA [MAT - Exclusion Arginine A - Mod of Eli - D18] | 12.7
21 | AAUCGUAAGGCGGCCGCCACUACACAUGAGGAUCACCCAUGUCUCGCAGGCUUGCGUUGGGUUAGUAGGACCGGGCCAGUAAUAA [Exclusion - Tryptophan B (Freestyle 15)] | 34.5
22 | UGGGUUGGACCAGGAAAUGGUCUGACUCACCGAGGACCGGUACGGCCGCCACUCGUAGGUACAUGAGGAUCACCCAUGUCGGUGG [#1 Same State - Tryptophan A Attempt #11 (HarryS)] | 68.8
23 | AGACGAGCAAUCAACGGGCGUUUCGUGACGCGAGGACCGGUACGGCCGCCACUCGAGUCUGGACAUGAGGAUCACCCAUGUUAUG [theeternabot_exclusion_MS2_Trp_A_46] | 22.2
24 | GGGCGAGUGGAGCGGCGUGCUCCGCUCCGUCGAGGACCGGUACGGCCGCCACUCGACAUGAGGAUCACCCAUGUGCGAGCUCGCG [#1 Exclusion - Tryptophan A Attempt #13 (HarryS)] | 180

Row | Sequence | apparent KD of MS2 coat protein [nM]
25 | CGAUAUGAGGUCGAUACCAGCAGCUUCAAGCACAUGAGGAUCACCCAUGUCCAUUUUACUUGCCCUUGGCAGCGACUUUGGAAAC [theeternabot_sameState_MS2_Theo_B_23] | 38.4
26 | GCGGACAUGAGGAUCACCCAUGUAAAUCCUCGAGGACCGGUACGGCCGCCACUCGAACGAGUGGCGCGCGAGCGCGCGCUCGCGC [aBa] | 45.7
27 | GAAGAUCCGUAAGAUACCAGUGCAGAUCGGCACAUGAGGAUCACCCAUGUAAAGCAAGAACACCCUUGGCAGCUUUCGUAACAAC [theeternabot_sameState_MS2_Theo_B_15] | 109
28 | UUAUUUAACGGAAGGAGCGCGGAAUAAUAAGUGGGUAAACAUGAGGAUCACCCAUGUAAACCGCAGGUAGGUCGCCGAUAUUUAU [AstrosEXyARgB#3] | 74.7
29 | ACUAGUUGUGCAGAUACCAGAUAUGAGGAUCACCCAUAUUUGGGAUGUUCGCAUCUUCCUGUCCCUUGGCAGCUGUACAUCUAGA [Omei Theo B Exc v7] | 33.9
30 | GUCUCAGACCGAGAUACCAGCUGGGUUUCCCACAUGAGGAUCACCCAUGUAUUCAGAUUAAGCCCUUGGCAGCUCAUCUAGGUCC [theeternabot_sameState_MS2_Theo_B_44] | 16.6
31 | CUCUGAGUGAGAAAUCACUCAGAGGCGGAUACCAGCGAGGUCCAUCGCCCUUGGCAGCCGAACAUGAGGAUCACCCAUGUCGGUA [#1 Same State - Theophylline A Attempt #21 (HarryS)] | 9.34
32 | CACAUGAGGAUCACCCAUGUCUGAACUGAAGGAGCGCUAAAUAAGGCAGGUAGGUCGCGGAAUCUUGUGUGCAUAUGCACACGGG [9.T] | 25
33 | UGUACAGACAUCGAAUUCCUAUGUGCUGAAGGAGCGUCGUUGACGACAGGUAGGUCGCAGUUAACAUGAGGAUCACCCAUGUACA [Arg A Ex t5] | 77.5
34 | UCCACAUGAGGAUCACCCAUGUGCCAUGAUACCAGACAUGAAAAUGUCCCUUGGCAGCAUGAGUGAGGCAUCCGAAAGGAUGCCU [Chrlice] | 409
35 | UGCGACAAGUGAAUACUUUGUUCUAGAGAUACCAGUUCCCGAGUGAACCCUUGGCAGCUCCCAACAUGAGGAUCACCCAUGUAUU [theeternabot_exclusion_MS2_Theo_A_24] | 13.5
36 | AAGGGAGAGUCAGAUACCAGAGUAAGAUGGCAUGGUAAUUACAUGAGGAUCACCCAUGUAUUCCCUUGGCAGCUGACCCUACGUU [Exclusion Theophylline B GF 19] | 12.8
37 | GGGCCUAUCUGAAGGAGCGACAUGAGGAUCACCCAUGUCUCCCGUUAUGGGAGUUCUUUAGGUCAGGUAGGUCGCAGGUAGGGCC [#1 Exclusion - Arginine B Attempt #5 (Inspired by Omei)] | 15
38 | CCAGCCCUUCUAGAUACCAGCUUUCAAUAUAAGACAACUCACAUGAGGAUCACCCAUGUUAGCCCUUGGCAGCUAAGAUCCACAA [theeternabot_exclusion_MS2_Theo_B_32] | 48.5
39 | CACAUGAGGAUCACCCAUGUCUGAACUGAAGGAGCGCUAAACAAGGCAGGUAGGUCGCGGAAUCCCGUGUGCAUAUGCACACGGG [9.Z] | 18.9
